{"source": "patent US8008452B2", "about": "“Phosphorylated Ndr kinase” (Novartis Forschungesstiftung, Zweigniederlassung Friedrich …, priority 2002, dated 2011)", "system": "HA-NDR1", "test": "HA-NDR1 kinase assay on 12CA5 immunoprecipitates from transfected, treated COS-1 cells", "assay_type": "cell-based, human", "details": "COS-1 cells", "experimental": "In some experiments, the cells were treated for 60 min with 1 microM okadaic acid in 0.1% N,N-dimethylformamide (DMF) (Alexis Corp.), 50 microM BAPTA-AM (1,2-bis (o-aminophenoxy) ethane-N,N,N′,N′-tetraacetic acid tetra (acetoxy-methyl)ester) in 0.1% diimethylsulfoxide (DMSO; Sigma), or 20 microM thapsigargin in 0.1% DMSO (Alomone) 24 hours after transfection.\nTransfected and treated COS-1 cells were washed once with ice-cold PBS, and harvested by rubber policeman in 1 ml ice-cold PBS containing 1 mM Na3VO4 and 20 mM beta-glycerophosphate before lysis in 500 microliters of IP buffer (20 mM Tris-HCl pH 8.0, 150 mM NaCl, 1% Nonidet P-40, 10% glycerol, 1 mM Na3VO4, 20 mM beta-glycerolphosphate, 1 microM microcystin-LR, 50 mM NaF, 0.5 mM PMSF, 4 microM leupeptin, 1 mM benzamidine, and 1 tablet/10 ml IP of Complete protease inhibitors (Roche)). Lysates were centrifuged at 20 000 g for 20 min and triplicate aliquots (200 microg) of supernatant were precleared with protein A-Sepharose (Amersham Pharmacia Biotech) for 60 min and mixed subsequently for 3 h at 4° C. with 12CA5 antibody prebound to protein A-Sepharose (˜1 microg antibody bound to 2 microl beads). The beads were then washed twice with IP buffer, once for 10 min with IP buffer containing 1 M NaCl, once again for 10 min with IP buffer, and finally twice with 20 mM Tris-HCl pH 7.5 containing 4 microM leupeptin and 1 mM benzamidine. […] After 60 min incubation at 30° C., 15 microliters of supernatant were removed, and phosphate incorporation into the substrate peptide determined as described for GST-NDR1 above. […]\nTo test whether hMOB1 plays a role in NDR activation, myc-hMOB1 or the empty vector was cotransfected with HA-NDR1 in COS1 cells and treated with OA. […] The reactions were resolved on a 10% SDS PAGE and the radioactivity visualised by using a phosphoimager."}
{"molecule": "S281A: NDR1 alanine mutant of phosphorylation residue Ser281; GST fusion or HA-tagged (protein, left off: small tags and cut ends, NDR1 alanine mutant of phosphorylation residue Ser281; GST fusion or HA-tagged) MAMTGSTPCSSMSNHTKERVTMTKVTLENFYSNLIAQHEEREMRQKKLEKVMEEEGLKDEEKRLRRSAHARKETEFLRLKRTRLGLEDFESLKVIGRGAFGEVRLVQKKDTGHVYAMKILRKADMLEKEQVGHIRAERDILVEADSLWVVKMFYSFQDKLNLYLIMEFLPGGDMMTLLMKKDTLTEEETQFYIAETVLAIDSIHQLGFIHRDIKPDNLLLDSKGHVKLSDFGLCTGLKKAHRTEFYRNLNHSLPSDFTFQNMNSKRKAETWKRNRRQLAFATVGTPDYIAPEVFMQTGYNKLCDWWSLGVIMYEMLIGYPPFCSETPQETYKKVMNWKETLTFPPEVPISEKAKDLILRFCCEWEHRIGAPGVEEIKSNSFFEGVDWEHIRERPAAISIEIKSIDDTSNFDEFPESDILKPTVATSNHPETDYKNKDWVFINYTYKRFEGLTARGAIPSYMKAAK", "values": [{"measurement": "kinase activity of HA-NDR1 variants, +OA", "setting": "1 microM okadaic acid 1 h", "value": 0.1113}, {"measurement": "kinase activity of HA-NDR1 variants, −OA", "setting": "solvent alone 1 h", "value": 0.0357}]}
